Reference: PMC13579936, “Walking the tightrope: Balancing opposing cooperativities in dynein assembly” (The Journal of Biological Chemistry, 2026)

B1: D. melanogaster dynein intermediate chain ICTL (domain or fragment, UniProt Q24246 84-143, looked up)
chain: SNTQTPDASLQATVNGQSGGKKQPLNLSVYNVQATNIPPKETLVYTKQTQTTSTGGGNGD
notes: cytoplasmic dynein intermediate chain (IC), D. melanogaster; source: purity verified by SDS-PAGE and size-exclusion chromatography
B2: D. melanogaster dynein light chain LC8 (homodimer) (natural protein)
chain: MSDRKAVIKNADMSEEMQQDAVDCATQALEKYNIEKDIAAYIKKEFDKKYNPTWHCIVGRNFGSYVTHETRHFIYFYLGQVAILLFKSG
notes: dynein light chain LC8, D. melanogaster; homodimer; source: purity verified by SDS-PAGE and size-exclusion chromatography
B3: D. melanogaster dynein light chain Tctex1 (homodimer) (natural protein)
chain: MDDSREESQFIVDDVSKTIKEAIETTIGGNAYQHDKVNNWTGQVVENCLTVLTKEQKPYKYIVTAMIMQKNGAGLHTASSCYWNNDTDGSCTVRWENKTMYCIVSVFGLAV
notes: dynein light chain Tctex1, D. melanogaster; homodimer; source: purity verified by SDS-PAGE and size-exclusion chromatography

Assays:
Assay in all cases: ITC; VP-ITC, 25 °C; 50 mM sodium phosphate, 50 mM sodium chloride, 1 mM sodium azide, pH 7.5; 39 isotherms of eight experiment types (IC in cell or in syringe, two- and three-protein titrations, dissociation; 27 from ref. 8, 12 new) fitted globally to a seven-state model by hierarchical Bayesian inference
[1] = target: TILI: one IC chain with a half-bound Tctex1 homodimer and a half-bound LC8 homodimer (D. melanogaster) (UniProt Q94524)
[2] = target: B2; conditions: both partners purified
[3] = target: B3; conditions: both partners purified
[4] = target: T1, TII: Tctex1 homodimer with two IC chains bound (D. melanogaster, UniProt Q94524 1-111; Q24246 84-143); conditions: both partners purified
T1 construct: dynein light chain Tctex1, D. melanogaster; as the chain of m3; cytoplasmic dynein intermediate chain, D. melanogaster, construct ICTL; as the chain of m1; source: formed from the purified proteins m1 and m3 in the ITC samples; copies: 2 + 2
T1 sequence 1: B3 chain
T1 sequence 2: B1 chain

[5] = target: T2, TI: Tctex1 homodimer with one IC chain bound (half-bound) (D. melanogaster, UniProt Q94524 1-111; Q24246 84-143); conditions: both partners purified
T2 construct: dynein light chain Tctex1, D. melanogaster; as the chain of m3; cytoplasmic dynein intermediate chain, D. melanogaster, construct ICTL; as the chain of m1; source: formed from the purified proteins m1 and m3 in the ITC samples; copies: 2 + 1
T2 sequence 1: B3 chain
T2 sequence 2: B1 chain

[6] = target: T3, LI: LC8 homodimer with one IC chain bound (half-bound) (D. melanogaster, UniProt Q24117 1-89; Q24246 84-143); conditions: both partners purified
T3 construct: dynein light chain LC8, D. melanogaster; as the chain of m2; cytoplasmic dynein intermediate chain, D. melanogaster, construct ICTL; as the chain of m1; source: formed from the purified proteins m1 and m2 in the ITC samples; copies: 2 + 1

[7] = target: T4, LII: LC8 homodimer with two IC chains bound (D. melanogaster, UniProt Q24117 1-89; Q24246 84-143); conditions: both partners purified
T4 construct: dynein light chain LC8, D. melanogaster; as the chain of m2; cytoplasmic dynein intermediate chain, D. melanogaster, construct ICTL; as the chain of m1; source: formed from the purified proteins m1 and m2 in the ITC samples; copies: 2 + 2

What does the source list for B1?
dH [1]: -18.1 kcal/mol; dH, first IC on the LC8 dimer (state LI) [2]: -14.8 kcal/mol; dH, second IC on the LC8 dimer (LI to LII) [2]: -15.1 kcal/mol; dH, first IC on the Tctex1 dimer (state TI) [3]: -6.76 kcal/mol; dH, second IC on the Tctex1 dimer (TI to TII) [3]: -4.97 kcal/mol

What does the source list for B2?
dH [4]: -25.8 kcal/mol; dH [5]: -12.7 kcal/mol

How did the dH [6] turn out when B3 was run?
Its dH is -4.7 kcal/mol.

And the dH [7]?
Its dH is -7.72 kcal/mol.
